The assay concerns the target ARHGAP24, Q8N264-1.

Results on 1 substance are retold here after IntAct's records for PubMed 21926999.

Sequence of ARHGAP24, Q8N264-1 (Q8N264 whole entry): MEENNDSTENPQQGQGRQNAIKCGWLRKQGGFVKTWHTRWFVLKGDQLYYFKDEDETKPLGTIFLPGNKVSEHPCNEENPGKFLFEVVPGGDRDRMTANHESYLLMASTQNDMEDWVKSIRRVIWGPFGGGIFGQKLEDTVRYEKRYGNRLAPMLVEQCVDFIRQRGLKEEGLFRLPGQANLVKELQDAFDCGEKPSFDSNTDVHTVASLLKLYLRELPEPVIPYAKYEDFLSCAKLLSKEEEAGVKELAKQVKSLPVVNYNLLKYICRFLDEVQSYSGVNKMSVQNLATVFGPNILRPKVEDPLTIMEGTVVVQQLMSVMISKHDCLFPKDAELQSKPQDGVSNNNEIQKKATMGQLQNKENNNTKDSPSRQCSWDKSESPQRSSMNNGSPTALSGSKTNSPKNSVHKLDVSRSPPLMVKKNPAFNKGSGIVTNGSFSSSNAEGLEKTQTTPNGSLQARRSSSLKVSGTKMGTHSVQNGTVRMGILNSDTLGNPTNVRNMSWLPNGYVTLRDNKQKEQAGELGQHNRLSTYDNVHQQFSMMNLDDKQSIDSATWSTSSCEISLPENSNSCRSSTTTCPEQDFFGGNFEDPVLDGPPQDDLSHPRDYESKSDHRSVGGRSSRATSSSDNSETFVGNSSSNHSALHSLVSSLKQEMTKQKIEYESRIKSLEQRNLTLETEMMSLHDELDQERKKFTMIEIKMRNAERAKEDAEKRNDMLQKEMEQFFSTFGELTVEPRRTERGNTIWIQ

Regarding Filamin-A (Homo sapiens), P21333 M2474E, the “effect of a mutation on the interaction” value is “disrupting interaction”.
